Source: the supplement of paper PMC5998384

How the values were obtained:
[1] = tested on: HeLa Kyoto; assay: solubility in G1/S (NP-40 vs SDS abundance) (log2 ratio); higher = more soluble; conditions: cell cycle stage: G1/S
[2] = tested on: HeLa Kyoto; assay: melting temperature (median over replicates), in situ; higher = more thermally stable
[3] = tested on: HeLa Kyoto; assay: solubility change mitosis vs G1/S (difference of NP-40 vs SDS log2 ratios) (log2 ratio difference); higher = more soluble in mitosis
[4] = tested on: HeLa Kyoto; assay: thermal stability score vs G1/S (z-score of summed log2 fold changes over temperatures); higher = more thermally stable than in G1/S
[5] = cell cycle stage: early G1 (4.5 h after nocodazole release)
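Throughout, for melting temperature (median over replicates), in situ: HeLa Kyoto cells synchronized by double thymidine or nocodazole block, proteins quantified by TMT10plex mass spectrometry, three independent biological replicates.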
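Throughout, for solubility change mitosis vs G1/S (difference of NP-40 vs SDS log2 ratios): synchronized HeLa Kyoto cells (double thymidine block for G1/S, nocodazole release for mitosis), protein amounts in NP-40 versus SDS lysates quantified by mass spectrometry, three biological replicates.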
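Throughout, for solubility in G1/S (NP-40 vs SDS abundance): HeLa Kyoto cells arrested at G1/S by double thymidine block, proteins quantified by TMT10plex mass spectrometry in mild NP-40 versus SDS extracts, three biological replicates.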
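Throughout, for thermal stability score vs G1/S (z-score of summed log2 fold changes over temperatures): synchronized HeLa Kyoto cells, proteins quantified by TMT10plex mass spectrometry, three biological replicates, mitosis taken 0.5 h after nocodazole release, G1/S directly after double thymidine block.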

Chain of CIAPIN1 (chain, as listed by the source): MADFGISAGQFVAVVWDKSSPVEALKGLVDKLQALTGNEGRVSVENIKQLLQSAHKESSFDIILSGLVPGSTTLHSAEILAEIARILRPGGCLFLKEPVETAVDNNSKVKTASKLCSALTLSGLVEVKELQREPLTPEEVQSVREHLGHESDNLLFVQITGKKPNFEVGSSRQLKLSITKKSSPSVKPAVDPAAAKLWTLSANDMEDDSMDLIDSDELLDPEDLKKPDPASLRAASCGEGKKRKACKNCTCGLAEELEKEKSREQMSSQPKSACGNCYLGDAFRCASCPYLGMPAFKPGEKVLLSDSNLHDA

Substance	solubility in G1/S (log2) [1]	melting temperature ([2]; cell cycle stage: G1/S) [°C]	melting temperature ([2]; cell cycle stage: mitosis) [°C]	solubility change mitosis (log2) [3]	thermal stability score [4, 5]	thermal stability score ([4]; cell cycle stage: mitosis)
MRSRSNSGVRLDGYARLVQQTILCYQNPVTGLLSASHEQKDAWVRDNIYSILAVWGLGMAYRKNADRDEDKAKAYELEQNVVKLMRGLLQCMMRQVAKVEKFKHTQSTKDSLHAKYNTATCGTVVGDDQWGHLQVDATSLFLLFLAQMTASGLRIIFTLDEVAFIQNLVFYIEAAYKVADYGMWERGDKTNQGIPELNASSVGMAKAALEAIDELDLFGAHGGRKSVIHVLPDEVEHCQSILFSMLPRASTSKEIDAGLLSIISFPAFAVEDVNLVNVTKNEIISKLQGRYGCCRFLRDGYKTPREDPNRLHYDPAELKLFENIECEWPVFWTYFIIDGVFSGDAVQVQEYREALEGILIRGKNGIRLVPELYAVPPNKVDEEYKNPHTVDRVPMGKVPHLWGQSLYILSSLLAEGFLAAGEIDPLNRRFSTSVKPDVVVQVTVLAENNHIKDLLRKHGVNVQSIADIHPIQVQPGRILSHIYAKLGRNKNMNLSGRPYRHIGVLGTSKLYVIRNQIFTFTPQFTDQHHFYLALDNEMIVEMLRIELAYLCTCWRMTGRPTLTFPISRTMLTNDGSDIHSAVLSTIRKLEDGYFGGARVKLGNLSEFLTTSFYTYLTFLDPDCDEKLFDNASEGTFSPDSDSDLVGYLEDTCNQESQDELDHYINHLLQSTSLRSYLPPLCKNTEDRHVFSAIHSTRDILSVMAKAKGLEVPFVPMTLPTKVLSAHRKSLNLVDSPQPLLEKVPESDFQWPRDDHGDVDCEKLVEQLKDCSNLQDQADILYILYVIKGPSWDTNLSGQHGVTVQNLLGELYGKAGLNQEWGLIRYISGLLRKKVEVLAEACTDLLSHQKQLTVGLPPEPREKIISAPLPPEELTKLIYEASGQDISIAVLTQEIVVYLAMYVRAQPSLFVEMLRLRIGLIIQVMATELARSLNCSGEEASESLMNLSPFDMKNLLHHILSGKEFGVERSVRPIHSSTSSPTISIHEVGHTGVTKTERSGINRLRSEMKQMTRRFSADEQFFSVGQAASSSAHSSKSARSSTPSSPTGTSSSDSGGHHIGWGERQGQWLRRRRLDGAINRVPVGFYQRVWKILQKCHGLSIDGYVLPSSTTREMTPHEIKFAVHVESVLNRVPQPEYRQLLVEAIMVLTLLSDTEMTSIGGIIHVDQIVQMASQLFLQDQVSIGAMDTLEKDQATGICHFFYDSAPSGAYGTMTYLTRAVASYLQELLPNSGCQMQ [PHKA2]	0.00161	52.6	51.7	-0.229	0.315	-0.217
RALGAPB	-0.0337	50.2	51	-0.169	-1.55	-1.73
CIAPIN1	0.471	50.7	51.7	-0.0971	0.785	3.13
MAAVWQQVLAVDARYNAYRTPTFPQFRTQYIRRRSQLLRENAKAGHPPALRRQYLRLRGQLLGQRYGPLSEPGSARAYSNSIVRSSRTTLDRMEDFEDDPRALGARGHRRSVSRGSYQLQAQMNRAVYEDRPPGSVVPTSAAEASRAMAGDTSLSENYAFAGMYHVFDQHVDEAVPRVRFANDDRHRLACCSLDGSISLCQLVPAPPTVLRVLRGHTRGVSDFAWSLSNDILVSTSLDATMRIWASEDGRCIREIPDPDSAELLCCTFQPVNNNLTVVGNAKHNVHVMNISTGKKVKGGSSKLTGRVLALSFDAPGRLLWAGDDRGSVFSFLFDMATGKLTKAKRLVVHEGSPVTSISARSWVSREARDPSLLINACLNKLLLYRVVDNEGTLQLKRSFPIEQSSHPVRSIFCPLMSFRQGACVVTGSEDMCVHFFDVERAAKAAVNKLQGHSAPVLDVSFNCDESLLASSDASGMVIVWRREQK [WDR13]	0.0237	53.2	53	-0.174	0.118	0.204
MAAGDGDVKLGTLGSGSESSNDGGSESPGDAGAAAEGGGWAAAALALLTGGGEMLLNVALVALVLLGAYRLWVRWGRRGLGAGAGAGEESPATSLPRMKKRDFSLEQLRQYDGSRNPRILLAVNGKVFDVTKGSKFYGPAGPYGIFAGRDASRGLATFCLDKDALRDEYDDLSDLNAVQMESVREWEMQFKEKYDYVGRLLKPGEEPSEYTDEEDTKDHNKQD [PGRMC2]	0.236	52.3	53.9	-0.00423	-0.577	0.992
MGLQACLLGLFALILSGKCSYSPEPDQRRTLPPGWVSLGRADPEEELSLTFALRQQNVERLSELVQAVSDPSSPQYGKYLTLENVADLVRPSPLTLHTVQKWLLAAGAQKCHSVITQDFLTCWLSIRQAELLLPGAEFHHYVGGPTETHVVRSPHPYQLPQALAPHVDFVGGLHRFPPTSSLRQRPEPQVTGTVGLHLGVTPSVIRKRYNLTSQDVGSGTSNNSQACAQFLEQYFHDSDLAQFMRLFGGNFAHQASVARVVGQQGRGRAGIEASLDVQYLMSAGANISTWVYSSPGRHEGQEPFLQWLMLLSNESALPHVHTVSYGDDEDSLSSAYIQRVNTELMKAAARGLTLLFASGDSGAGCWSVSGRHQFRPTFPASSPYVTTVGGTSFQEPFLITNEIVDYISGGGFSNVFPRPSYQEEAVTKFLSSSPHLPPSSYFNASGRAYPDVAALSDGYWVVSNRVPIPWVSGTSASTPVFGGILSLINEHRILSGRPPLGFLNPRLYQQHGAGLFDVTRGCHESCLDEEVEGQGFCSGPGWDPVTGWGTPNFPALLKTLLNP [TPP1]	0.472	53.8	53.9	-0.0648	-0.723	-1.17
MRRFLRPGHDPVRERLKRDLFQFNKTVEHGFPHQPSALGYSPSLRILAIGTRSGAIKLYGAPGVEFMGLHQENNAVTQIHLLPGQCQLVTLLDDNSLHLWSLKVKGGASELQEDESFTLRGPPGAAPSATQITVVLPHSSCELLYLGTESGNVFVVQLPAFRALEDRTISSDAVLQRLPEEARHRRVFEMVEALQEHPRDPNQILIGYSRGLVVIWDLQGSRVLYHFLSSQQLENIWWQRDGRLLVSCHSDGSYCQWPVSSEAQQPEPLRSLVPYGPFPCKAITRILWLTTRQGLPFTIFQGGMPRASYGDRHCISVIHDGQQTAFDFTSRVIGFTVLTEADPAATFDDPYALVVLAEEELVVIDLQTAGWPPVQLPYLASLHCSAITCSHHVSNIPLKLWERIIAAGSRQNAHFSTMEWPIDGGTSLTPAPPQRDLLLTGHEDGTVRFWDASGVCLRLLYKLSTVRVFLTDTDPNENFSAQGEDEWPPLRKVGSFDPYSDDPRLGIQKIFLCKYSGYLAVAGTAGQVLVLELNDEAAEQAVEQVEADLLQDQEGYRWKGHERLAARSGPVRFEPGFQPFVLVQCQPPAVVTSLALHSEWRLVAFGTSHGFGLFDHQQRRQVFVKCTLHPSDQLALEGPLSRVKSLKKSLRQSFRRMRRSRVSSRKRHPAGPPGEAQEGSAKAERPGLQNMELAPVQRKIEARSAEDSFTGFVRTLYFADTYLKDSSRHCPSLWAGTNGGTIYAFSLRVPPAERRMDEPVRAEQAKEIQLMHRAPVVGILVLDGHSVPLPEPLEVAHDLSKSPDMQGSHQLLVVSEEQFKVFTLPKVSAKLKLKLTALEGSRVRRVSVAHFGSRRAEDYGEHHLAVLTNLGDIQVVSLPLLKPQVRYSCIRREDVSGIASCVFTKYGQGFYLISPSEFERFSLSTKWLVEPRCLVDSAETKNHRPGNGAGPKKAPSRARNSGTQSDGEEKQPGLVMERALLSDERVLKEIQSTLEGDRGSGNWRSHRAAVGCSLSNGGAE [LLGL2]	-0.27	51.1	51.5	-0.0143	-1.83	-2.52
NUP205	-0.671	52.1	48.8	0.203	-4.5	-6.17
MEPAEQPSELVSAEGRNRKAVLCQRCGSRVLQPGTALFSRRQLFLPSMRKKPALSDGSNPDGDLLQEHWLVEDMFIFENVGFTKDVGNIKFLVCADCEIGPIGWHCLDDKNSFYVALERVSHE [RABIF]	0.225	52.2	51.7	-0.0782	0.827	0.411
MKLYSLSVLYKGEAKVVLLKAAYDVSSFSFFQRSSVQEFMTFTSQLIVERSSKGTRASVKEQDYLCHVYVRNDSLAGVVIADNEYPSRVAFTLLEKVLDEFSKQVDRIDWPVGSPATIHYPALDGHLSRYQNPREADPMTKVQAELDETKIILHNTMESLLERGEKLDDLVSKSEVLGTQSKAFYKTARKQNSCCAIM [YKT6]	-0.0827	54.5	54.6	-0.0935	0.334	-0.9
MSGEDEQQEQTIAEDLVVTKYKMGGDIANRVLRSLVEASSSGVSVLSLCEKGDAMIMEETGKIFKKEKEMKKGIAFPTSISVNNCVCHFSPLKSDQDYILKEGDLVKIDLGVHVDGFIANVAHTFVVDVAQGTQVTGRKADVIKAAHLCAEAALRLVKPGNQNTQVTEAWNKVAHSFNCTPIEGMLSHQLKQHVIDGEKTIIQNPTDQQKKDHEKAEFEVHEVYAVDVLVSSGEGKAKDAGQRTTIYKRDPSKQYGLKMKTSRAFFSEVERRFDAMPFTLRAFEDEKKARMGVVECAKHELLQPFNVLYEKEGEFVAQFKFTVLLMPNGPMRITSGPFEPDLYKSEMEVQDAELKALLQSSASRKTQKKKKKKASKTAENATSGETLEENEAGD [PA2G4]	-0.0146	51.5	52.1	-0.108	-0.392	2
BCOR	-0.157	47.6	50.1	0.38	0.368	1.08
WDR45B	0.0796	54.5	57.4	-0.118	0.71	-1.09
MALLLCFVLLCGVVDFARSLSITTPEEMIEKAKGETAYLPCKFTLSPEDQGPLDIEWLISPADNQKVDQVIILYSGDKIYDDYYPDLKGRVHFTSNDLKSGDASINVTNLQLSDIGTYQCKVKKAPGVANKKIHLVVLVKPSGARCYVDGSEEIGSDFKIKCEPKEGSLPLQYEWQKLSDSQKMPTSWLAEMTSSVISVKNASSEYSGTYSCTVRNRVGSDQCLLRLNVVPPSNKAGLIAGAIIGTLLALALIGLIIFCCRKKRREEKYEKEVHHDIREDVPPPKSRTSTARSYIGSNHSSLGSMSPSNMEGYSKTQYNQVPSEDFERTPQSPTLPPAKVAAPNLSRMGAIPVMIPAQSKDGSIV [CXADR]	0.245	59.4	57.6	-0.112	-1.74	-2.2
MAVTDSLSRAATVLATVLLLSFGSVAASHIEDQAEQFFRSGHTNNWAVLVCTSRFWFNYRHVANTLSVYRSVKRLGIPDSHIVLMLADDMACNPRNPKPATVFSHKNMELNVYGDDVEVDYRSYEVTVENFLRVLTGRIPPSTPRSKRLLSDDRSNILIYMTGHGGNGFLKFQDSEEITNIELADAFEQMWQKRRYNELLFIIDTCQGASMYERFYSPNIMALASSQVGEDSLSHQPDPAIGVHLMDRYTFYVLEFLEEINPASQTNMNDLFQVCPKSLCVSTPGHRTDLFQRDPKNVLITDFFGSVRKVEITTETIKLQQDSEIMESSYKEDQMDEKLMEPLKYAEQLPVAQIIHQKPKLKDWHPPGGFILGLWALIIMVFFKTYGIKHMKFIF [PIGK]	-0.134	53.5	53.5	-0.0814	1.4	0.424
MTSAAPAKKPYRKAPPEHRELRLEIPGSRLEQEEPLTDAERMKLLQEENEELRRRLASATRRTEALERELEIGQDCLELELGQSREELDKFKDKFRRLQNSYTASQRTNQELEDKLHTLASLSHSWIFAIKKAEMDRKTLDWEIVELTNKLLDAKNTINKLEELNERYRLDCNLAVQLLKCNKSHFRNHKFADLPCELQDMVRKHLHSGQEAASPGPAPSLAPGAVVPTSVIARVLEKPESLLLNSAQSGSAGRPLAEDVFVHVDMSEGVPGDPASPPAPGSPTPQPNGECHSLGTARGSPEEELPLPAFEKLNPYPTPSPPHPLYPGRRVIEFSEDKVRIPRNSPLPNCTYATRQAISLSLVEEGSERARPSPVPSTPASAQASPHHQPSPAPLTLSAPASSASSEEDLLVSWQRAFVDRTPPPAAVAQRTAFGRDALPELQRHFAHSPADRDEVVQAPSARPEESELLLPTEPDSGFPREEEELNLPISPEEERQSLLPINRGTEEGPGTSHTEGRAWPLPSSSRPQRSPKRMGVHHLHRKDSLTQAQEQGNLLN [TJAP1]	0.288	51.1	51.7	-0.036	1.77	3.57
